Publication doi:10.1101/2023.06.16.545277, “VAMP2 regulates phase separation of alpha-synuclein” (bioRxiv, 2023)

Target: wild-type human full-length alpha-synuclein (human, UniProt P37840 1-140)
Test: NMR titration; 1H-15N-BEST-TROSY chemical shift perturbation; 40 μM 15N-labelled aSYN fixed, peptide titrated; 20 mM phosphate buffer, pH 7.0, 10% 2H2O, 298 K
Conditions: both partners purified

binding result: binds
B1: JMD long peptide (peptide)
peptide: KLKRKYWWKNLKMM
notes: VAMP2, full length of the juxtamembrane (JM) domain, aa 83-96; also called native JMD long peptide; JM-domain of VAMP2, aa 83-96; source: synthetic peptide (custom synthesis, Proteogenix)
